From US20100260677A1, “METHODS AND SYSTEMS FOR TREATMENT AND/OR DIAGNOSIS” (Massachusetts Institute of Technology, priority 2009, published 2010) come the findings set out here.

For one series, the system named is ICAM-1. The series can be described thus: Induction of ICAM-1 expression in HUVECs (immuno-staining). The format is cell-based, Human. Particulars: 10 ng/ml overnight. As for the experimental part:
This example illustrates the induction of ICAM-1 expression in HUVECs. […] Human Umbilical Vein Endothelial Cells (HUVECs) were cultured on slides coated with gelatin in Medium 200 supplemented with LSGS (Cascade Biologics/Invitrogen). One day after plating, cells were treated with 10 ng/ml TNF-alpha or vehicle alone overnight. The next day cells were fixed and immuno-stained for ICAM-1 expression (antibody from Cell Signaling).

The test system of series [1] is MDA-MB-435 tumors. The series can be described thus: Small molecule vascular disrupting agents: induction of coagulation in tumors (fibrinogen/albumin tropism). The format is in vivo, mice. Particulars: i.p. DMXAA 20 mg/kg or colchicine 1 mg/kg; 24 hours.
Method: Mice bearing MDA-MB-435 tumors were intravenously injected with a mixture of fibrinogen and albumin that had been labeled with unique near-infrared fluorophores (VT750 and VT680, respectively). Immediately after injection, mice were intraperitoneally injected with DMXAA (20 mg/kg) in 200 microliters of sodium bicarbonate buffer or vehicle. At 24 hours after injections, mice were sacrificed and organs removed for fluorescent quantification of protein tropism to tumors (* indicates p=0.014; n=6). […] Mice bearing bilateral MDA-MB-435 tumors were intravenously injected with a mixture of fibrinogen and albumin that had been labeled with unique near-infrared fluorophores (VT750 and VT680, respectively). […] At 24 hours after injections, mice were sacrificed and organs removed for fluorescent quantification of protein tropism to tumors.
For another series, the system named is MDA-MB-435 tumor. The series can be described thus: Autonomous communication between tTF signaling components and FXIII-NW receivers. The note with it: tTF-RGD+FXIII-NWs plus heparin 800 units/kg i.v. + 500 units/kg i.p. The format is in vivo, mice. As for the experimental part: For autonomously-communicating nanosystems, NIR-fluorophore-labeled peptide-bearing NWs (bearing VT750 fluorophores) were intravenously (2 mg Fe/kg) in PBS to unanaesthetized MDA-MB-435 tumor-bearing nu/nu mice alone or alongside various tTF signaling components (25 micrograms). At 24 hours post-NW injection, the mice were sacrificed and organs were analyzed for NIR receiver fluorescence (LI-COR Odyssey Infrared Imaging System). For intraoperative fluorescent tumor imaging, mice were anaesthesized and tumours were surgically exposed to reveal detailed tumor fluorescence (LI-COR). The levels of NW homing to tumors were plotted by comparing the average NW fluorescence in fully-excised tumours (n=4 mice at each condition). For whole animal organ distribution, tTF-RGD signaling components were administered intraperitoneally (25 micrograms) and FXIII-NWs were administered intravenously (2 mg Fe/kg) to unanaesthetized mice bearing an MDA-MB-435 tumor.
Nu/nu mice bearing a single MDA-MB-435 tumor were intravenously injected with communicating (tTF-RGD+FXIII-NWs) or control (tTF-RGD+control-NWs) systems, FXIII-NWs alone, or NWs targeted by the peptide used to direct signaling component tumor homing (1 mg/kg tTF-RGD). At 24 hours post-injection, tumors were surgically exposed for fluorescent intraoperative imaging of NW homing. […]

Series [2] concerns MDA-MB-435 tumors. The series can be described thus: Nanoworm receiver homing to externally heated tumors. The format is in vivo, mice. Particulars: 24 hours. As for the experimental part: (§1) Quantifying NW homing to tumors: Mixtures of NIR-fluorophore-labeled, targeted and control NWs (bearing VT750 and VT680 or VT680 and VT750, respectively) were co-adminstered intravenously in PBS (2 mg Fe/kg) to tumor-bearing nu/nu mice to provide an internal control reference for coagulation-specific NW homing. At 24 hours post-NW injection, mice were sacrificed and organs were analyzed for both NIR-fluorophores (LI-COR Odyssey Infrared Imaging System). For integrated nanoparticle system characterization, mice were additionally imaged under isofluorane anaesthetic before euthanization using a whole animal fluorescence reflectance imaging system (Xenogen, IVIS Imaging System) to visualize the specificity of NW homing to tumors. […] For initial characterization, levels of targeted and control NW homing were plotted by comparing the average NW fluorescence in heated tumors versus unheated tumors (n=4 mice at each temperature). For integrated network evaluation, levels were plotted by comparing the average targeted and untargeted NW fluorescence in irradiated tumors versus un-irradiated tumors (n=4 mice for all conditions).
Having observed that external heating of tumors produced localized coagulation, this response was utilized in an assay to assess the ability of receivers to target tumor coagulation prior to integrating them with signaling components. […]

Series [3] concerns MDA-MB-435 tumors. The series is described as follows: Integrated PEG-NR signaling / FXIII-NW receiver communication, NIR fluorescence imaging. The format is in vivo, mice. Particulars: PEG-NRs 10 mg Au/kg, 72 h later NWs i.v. + 810 nm ~0.75 W/cm^2 20 min; imaging at 96 hours. The method, then: as §1
PEG-NRs (or saline) were intravenously-injected into mice bearing bilateral MDA-MB-435 tumors. […]

For series [4], the target named is T1, coagulation transglutaminase Factor XIII (mouse, UniProt Q8BH61 39-732).
T1 sequence (looked up): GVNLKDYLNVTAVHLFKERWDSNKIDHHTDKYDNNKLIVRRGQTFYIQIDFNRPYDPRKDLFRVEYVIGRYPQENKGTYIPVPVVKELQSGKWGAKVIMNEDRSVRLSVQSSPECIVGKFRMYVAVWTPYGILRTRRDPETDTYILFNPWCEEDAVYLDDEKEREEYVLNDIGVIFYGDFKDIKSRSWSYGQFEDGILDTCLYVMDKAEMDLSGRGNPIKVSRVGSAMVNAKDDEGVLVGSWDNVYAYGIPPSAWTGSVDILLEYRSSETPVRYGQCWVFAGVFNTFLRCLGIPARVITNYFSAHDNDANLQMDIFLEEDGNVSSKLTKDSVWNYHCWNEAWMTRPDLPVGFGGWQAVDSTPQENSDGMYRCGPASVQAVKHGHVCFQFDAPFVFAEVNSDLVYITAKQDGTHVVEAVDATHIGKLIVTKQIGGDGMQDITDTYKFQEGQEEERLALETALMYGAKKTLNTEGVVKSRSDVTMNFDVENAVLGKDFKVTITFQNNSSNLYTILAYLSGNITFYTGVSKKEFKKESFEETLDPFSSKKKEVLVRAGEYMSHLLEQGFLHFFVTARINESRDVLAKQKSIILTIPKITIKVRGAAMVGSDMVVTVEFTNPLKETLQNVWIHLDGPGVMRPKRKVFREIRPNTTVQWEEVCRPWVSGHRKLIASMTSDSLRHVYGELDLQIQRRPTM
The series can be described thus: cell-based or functional assay.

For series [5], the target named is fibrin (polymerized fibrin deposited in heated tumors of mice) (mouse, UniProt E9PV24 37-789; Q8K0E8 35-481; Q8VCM7 26-436, limits assumed). The series can be described thus: cell-based or functional assay.
fibrin (polymerized fibrin deposited in heated tumors of mice), sequence (E9PV24 37-789 limits assumed, chain 1 of 3): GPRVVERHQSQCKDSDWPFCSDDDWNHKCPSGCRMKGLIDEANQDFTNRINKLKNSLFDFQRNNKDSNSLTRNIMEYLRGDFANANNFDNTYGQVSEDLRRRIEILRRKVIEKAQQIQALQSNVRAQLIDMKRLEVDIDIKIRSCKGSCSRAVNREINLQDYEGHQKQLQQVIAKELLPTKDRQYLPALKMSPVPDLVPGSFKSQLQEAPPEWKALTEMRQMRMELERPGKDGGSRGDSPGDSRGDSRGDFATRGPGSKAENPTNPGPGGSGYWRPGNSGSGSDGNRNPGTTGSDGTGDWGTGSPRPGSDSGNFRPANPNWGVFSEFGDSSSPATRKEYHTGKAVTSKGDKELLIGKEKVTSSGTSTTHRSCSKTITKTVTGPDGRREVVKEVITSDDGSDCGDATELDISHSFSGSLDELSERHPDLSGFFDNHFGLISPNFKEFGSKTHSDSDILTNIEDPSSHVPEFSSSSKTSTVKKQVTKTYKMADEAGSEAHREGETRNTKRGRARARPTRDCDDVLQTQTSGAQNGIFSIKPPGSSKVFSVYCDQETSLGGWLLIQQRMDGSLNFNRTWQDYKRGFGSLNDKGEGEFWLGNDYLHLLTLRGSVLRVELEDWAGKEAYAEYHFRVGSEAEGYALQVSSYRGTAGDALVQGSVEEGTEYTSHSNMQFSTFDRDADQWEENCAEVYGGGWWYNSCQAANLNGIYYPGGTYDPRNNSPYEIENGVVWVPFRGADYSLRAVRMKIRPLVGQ
fibrin (polymerized fibrin deposited in heated tumors of mice), sequence (Q8K0E8 35-481 limits assumed, chain 2 of 3): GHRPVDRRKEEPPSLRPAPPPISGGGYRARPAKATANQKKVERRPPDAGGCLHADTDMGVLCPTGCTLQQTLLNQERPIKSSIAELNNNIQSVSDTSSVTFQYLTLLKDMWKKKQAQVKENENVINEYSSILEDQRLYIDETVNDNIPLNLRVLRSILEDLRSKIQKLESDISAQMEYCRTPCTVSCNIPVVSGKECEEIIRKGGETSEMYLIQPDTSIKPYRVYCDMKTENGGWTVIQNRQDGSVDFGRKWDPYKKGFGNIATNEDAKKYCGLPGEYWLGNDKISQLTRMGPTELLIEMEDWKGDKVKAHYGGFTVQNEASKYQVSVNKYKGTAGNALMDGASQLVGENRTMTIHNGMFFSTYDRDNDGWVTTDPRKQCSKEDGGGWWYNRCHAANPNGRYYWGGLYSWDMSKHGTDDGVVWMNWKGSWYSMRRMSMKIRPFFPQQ
fibrin (polymerized fibrin deposited in heated tumors of mice), sequence (Q8VCM7 26-436 limits assumed, chain 3 of 3): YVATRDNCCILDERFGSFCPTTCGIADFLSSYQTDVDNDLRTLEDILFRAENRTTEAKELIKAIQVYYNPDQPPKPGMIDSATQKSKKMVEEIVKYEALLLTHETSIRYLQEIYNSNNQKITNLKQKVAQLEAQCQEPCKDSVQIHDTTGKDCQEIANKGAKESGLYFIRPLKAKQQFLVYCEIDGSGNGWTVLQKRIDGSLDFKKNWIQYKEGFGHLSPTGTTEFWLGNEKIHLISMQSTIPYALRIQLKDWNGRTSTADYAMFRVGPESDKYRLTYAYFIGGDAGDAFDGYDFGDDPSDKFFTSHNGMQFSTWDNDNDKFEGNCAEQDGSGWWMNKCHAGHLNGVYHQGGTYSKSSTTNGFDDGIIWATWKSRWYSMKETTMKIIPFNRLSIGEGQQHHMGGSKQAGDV

Positions of bridges follow the written chain, without caps; N, C: chain ends. Non-standard residues stand in square brackets, D forms with d. No end group written: not given here. Hyp = O=C(O)[C@@H]1C[C@@H](O)CN1; cY = chlorotyrosine; Ahx = NCCCCCC(=O)O

TNF-alpha: the “ICAM-1 expression on the cell surface” value in the series with ICAM-1 is “upregulation of ICAM-1 on the cell surface”.

As for `Cc1ccc2c(=O)c3cccc(CC(=O)O)c3oc2c1C` [DMXAA, 5,6-dimethylxanthenone-4-acetic acid], the “induction of coagulation in tumors” value with MDA-MB-435 tumors [1] is given as “specifically induced coagulation in tumors”.

Consider heparin, for which the “amplified vascular targeting when coagulation inhibitor administered alongside the integrated system” value with MDA-MB-435 tumor is on record as “absent”.

As for “FXIII-NWs: magnetofluorescent iron oxide nanoworms derivatized with a peptide substrate for coagulation transglutaminase Factor XIII (SEQ ID NO: 2) (GNQEQVSPLTLLK[Ahx]CK-Fluorescein; not fully specified (residue 15))”, the “histopathological distribution in heated tumors compared with controls” value with MDA-MB-435 tumors [2] (heated tumors) was “marked extravasation and interstitial spreading”. The “increase in tumor targeting, heated compared to unheated tumors” value with MDA-MB-435 tumors [2] (one tumor heated at 45° C. in water bath 20 min) is on record as “nearly an order of magnitude”. The “increase in accumulation in NR-heated tumors above unirradiated contralateral tumors and tumors on saline-injected mice” value with MDA-MB-435 tumors [3] is “over an order of magnitude”.

Take GNQEQVSPLTLLK[Ahx]CK-Fluorescein (also: coupled through the exogenous Cys to nanoworm or liposome carrier): in series [4], the “accumulation of FXIII-substrate receiving NWs in tumors heated to 45 C against unheated tumors (in vivo, NIR fluorescence at 24 hours)” value was approximately 10 fold; the “accumulation of FXIII-targeted NWs in nanorod-heated tumors against unirradiated contralateral tumors and tumors on saline-injected mice (in vivo, whole-animal fluorescence)” value is more than 10 fold; the “doxorubicin accumulation in tumors heated to 45 C against unheated controls, FXIII-substrate liposomes (in vivo)” value was more than 40 fold; the “doxorubicin accumulation in tumors, NR signaling components plus FXIII-LP receivers against the LPs alone (in vivo)” value was more than 40 fold.

B1: fibrin-binding peptide Ac-d-d-d-G-Y-e-C-hyP-cY-G-L-C-Y-I-Q-K-Fluorescein (peptide)
peptide: Ac-[dD][dD][dD]GY[dE]C[Hyp][cY]GLCYIQK-Fluorescein
modifications: disulfide 7-12 (inferred); not fully specified; printed as Ac-d-d-d-G-Y-e-C-hyP-cY-G-L-C-Y-I-Q-K-Fluorescein; also: attached to nanoworm via the Lys with NHS-PEO5-NHS linker
Turning to B1, the “targeting of fibrin-binding receiving NWs to heated tumors against unheated tumors (in vivo, NIR fluorescence)” value in series [5] was approximately 10 fold.
